This assay addresses human type 1 insulin-like growth factor receptor (human) (UniProt P08069). Put plainly: competitive displacement assay, plate capture of solubilized receptor (tracer for IGF-1R not stated).

pKd: −log10 of the molar value.

“KP-insulin ([Lys^B28, Pro^B29]-insulin, insulin Lispro) (ligand; other documents disagree on this pair)”: the pKd (usually the Kd on a negative log10 scale, so that one unit is a factor of ten) was 8.30.

These data come from patent publication US20190382463A1.
